Target: anti-VCAM-1.tTF coaguligand (anti-VCAM-1 antibody IgG covalently linked via SMPT to truncated tissue factor with an added N-terminal cysteine) (human) (UniProt P13726)
Experiment: 125I-labeled 10H10 bound to anti-VCAM-1.tTF-treated IL-1α-activated bEnd.3 cells, gamma counting

Sequence of UniProt P13726 (P13726 other isoform, or with tags, fused parts or gaps): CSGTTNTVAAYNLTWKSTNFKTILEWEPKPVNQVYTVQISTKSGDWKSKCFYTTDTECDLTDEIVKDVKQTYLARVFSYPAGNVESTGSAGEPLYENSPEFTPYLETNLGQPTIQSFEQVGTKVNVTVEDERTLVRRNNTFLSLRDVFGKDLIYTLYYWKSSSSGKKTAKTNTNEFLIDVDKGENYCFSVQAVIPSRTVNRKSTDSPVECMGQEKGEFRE

- anti-TF antibody bound to coaguligand-treated cells at saturation: 8.7 fmol
- molecules of anti-TF antibody bound per cell at saturation (molecules of anti-TF antibody per cell): 540000
Substance: 10H10, mouse monoclonal antibody against human tissue factor
